Assay results as given in article PMC3923779, “Iron Acquisition in Bacillus cereus: The Roles of IlsA and Bacillibactin in Exogenous Ferritin Iron Mobilization” (PLoS Pathogens, 2014).

B1: recombinant mouse H-chain ferritin (natural protein, UniProt P09528 1-182, looked up)
chain: MTTASPSQVRQNYHQDAEAAINRQINLELYASYVYLSMSCYFDRDDVALKNFAKYFLHQSHEEREHAEKLMKLQNQRGGRIFLQDIKKPDRDDWESGLNAMECALHLEKSVNQSLLELHKLATDKNDPHLCDFIETYYLSEQVKSIKELGDHVTNLRKMGAPEAGMAEYLFDKHTLGHGDES
notes: mouse ferritin H-chain, recombinant homopolymer; also called MoHF; recombinant mouse homopolymer H-chain; copies: 24
B2: IlsA (Iron-regulated leucine rich surface protein type A), recombinant, without signal peptide (natural protein, Bacillus cereus strain ATCC14579, UniProt Q81G77 29-760, looked up)
chain: ALKVEANQSVAAASDRTYDTEIKIYKDQKDEPSMVSQYIKDPKVTIAAGKKIVTVTMQDSDYFQYLRIEDKNQPGVFHDVKVLSEDKRKNGTKVVQFEIGEFEKKHNMQMHILIPAIGYDHKYQVQFEIKDPTVGNKETEKPDDNSNSGNTETDNPVDNQNMITDNKLRELVNKKVFNRKDLNTPITKEDLLQVKDLFLNTNEILDYSALKYMPNLKSLTVANAKIKDPSFFANLKQLNHLALRGNEFADVTPLVKMDNLESLDLSNNKITNVAPLTEMKNVKSLFLSGNQIEDVTALAKMEQLDYLNLANNKITNVAPLSNLKNVTYLTLAGNQIEDIKPLYTLPLKDLVLTRNKVKDLSGIDQLNQLQELWIGKNEITDVTPLSKMTQLKILNLPNNELKDITPLSSLVNLQKLDLEANYISDLSPVSNLKKLVFLSFVANEIRDVRPVIELSKTAYINVQNQKVFLEETEVNKEVKVPIYEKDGEISTKIRLKSDNGTYSNGVVKWSTPGEKVYEFGVKDPFADTGIFFTGSVIQNVVESKDGNTSKEDEKTEVVEFKDVPKGHWSEEAINYLAKEKLFIGYGNGEFGFGDNITRGQVALLIQRYLKLENNLEQKTAFTDTKGNMYETAIDAVVQAGIMTGYGNGMFRPDGVLTRYEMSVVLQRVFQLKENENSAENFKDVPNGHWAKGYVKALVDNKISKGDGEGNFLGDNFVTREQYAQFLYNAIKK
notes: IlsA of Bacillus cereus strain ATCC14579, NCBI gene number Bc1331; Holo form (hemin added until saturation of 80%) in the ITC; also called Holo-IlsA; full-length IlsA; source: E. coli C600 ΔhemA, purified (Bulk GST Purification Module, eluted with PreScission Protease); produced in apo-form, hemin added to reconstitute the holo-protein

What was measured:
Test in all cases: ITC; 16 injections of 3 µl of 229 µM holo-IlsA into the cell with 1 µM ferritin; 25°C; 50 mM Tris-HCl pH 7, 150 mM NaCl, 1 mM EDTA, 1 mM DTT; model of one set of independent binding sites; apparent values
Settings in all cases: both partners purified
[1] = target: B2
[2] = target: T1, recombinant human L-chain ferritin (human, UniProt P02792 1-175)
T1 construct: human ferritin L-chain, recombinant homopolymer of 24 L-subunits; also called HuLF; recombinant human homopolymer L-chain; copies: 24
T1 sequence (P02792 whole entry): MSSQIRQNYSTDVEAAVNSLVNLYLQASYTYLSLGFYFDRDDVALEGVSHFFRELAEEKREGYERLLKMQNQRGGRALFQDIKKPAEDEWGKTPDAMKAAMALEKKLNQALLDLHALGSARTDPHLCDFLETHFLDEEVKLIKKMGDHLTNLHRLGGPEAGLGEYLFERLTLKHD

[3] = target: T2, recombinant human heteropolymer H/L ferritin (human, UniProt P02794 1-183; P02792 1-175)
T2 construct: human ferritin H-chain in the recombinant heteropolymer; human ferritin L-chain in the recombinant heteropolymer; The results print ∼20 H-chains and 4 L-chains; also called HuH/LF; recombinant heteropolymer ferritin; copies: 20 + 4
T2 sequence (P02794 whole entry, chain 1 of 2): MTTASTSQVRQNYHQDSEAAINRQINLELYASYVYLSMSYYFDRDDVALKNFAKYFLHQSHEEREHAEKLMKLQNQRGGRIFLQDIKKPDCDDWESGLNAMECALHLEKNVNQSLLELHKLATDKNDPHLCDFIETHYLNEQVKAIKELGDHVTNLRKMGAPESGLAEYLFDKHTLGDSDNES
T2 sequence (P02792 whole entry, chain 2 of 2): as the sequence (P02792 whole entry) above

[4] = target: T3, recombinant human H-chain ferritin (human, UniProt P02794 1-183)
T3 construct: human ferritin H-chain, recombinant homopolymer of 24 H-subunits; loaded with 500 Fe/shell in the iron release assay; also called HuHF; holoHuHF; copies: 24
T3 sequence (P02794 whole entry): as the sequence (P02794 whole entry, chain 1 of 2) above

[5] = target: B1

| Binder | Ka [1] | dH [2] | stoichiometry N [2] | dH [3] | stoichiometry N [3] | dH [4] | stoichiometry N [4] | dH [5] | stoichiometry N [5] |
| --- | --- | --- | --- | --- | --- | --- | --- | --- | --- |
| B1 | 2.07e+06 M⁻¹ | – | – | – | – | – | – | – | – |
| B2 | – | -2.08 kcal/mol | 23.9 IlsA per ferritin shell | -2.08 kcal/mol | 23.8 IlsA per ferritin shell | -0.982 kcal/mol | 25.2 IlsA per ferritin shell | -0.801 kcal/mol | 24.9 IlsA per ferritin shell |
